According to patent US20140179604A1 (U S A REPRESENTED BY THE DEPARTMENT OF VETERANS AFFAIRS, published 2014):
Non-standard residues stand in square brackets, D forms with d. *: point of attachment. Phe(F5) = N[C@@H](Cc1c(F)c(F)c(F)c(F)c1F)C(=O)O; Desaminotyrosyl = O=C(CCc1ccc(O)cc1)*; hArg = N=C(N)NCCCC[C@H](N)C(=O)O; Agmatine = N=C(N)NCCCCN*; Nle = CCCC[C@H](N)C(=O)O; Orn = NCCC[C@H](N)C(=O)O; Abu = CC[C@H](N)C(=O)O; GABA = NCCCC(=O)O

T1: GHRH receptor (membrane receptors of human anterior pituitary cells) (human, UniProt Q02643 23-423)
T1 construct: whole, on cells; Native receptor in a membrane fraction of purchased normal human pituitaries, not intact cells; also called hGHRH receptor; human pituitary membrane homogenates
T1 sequence (looked up): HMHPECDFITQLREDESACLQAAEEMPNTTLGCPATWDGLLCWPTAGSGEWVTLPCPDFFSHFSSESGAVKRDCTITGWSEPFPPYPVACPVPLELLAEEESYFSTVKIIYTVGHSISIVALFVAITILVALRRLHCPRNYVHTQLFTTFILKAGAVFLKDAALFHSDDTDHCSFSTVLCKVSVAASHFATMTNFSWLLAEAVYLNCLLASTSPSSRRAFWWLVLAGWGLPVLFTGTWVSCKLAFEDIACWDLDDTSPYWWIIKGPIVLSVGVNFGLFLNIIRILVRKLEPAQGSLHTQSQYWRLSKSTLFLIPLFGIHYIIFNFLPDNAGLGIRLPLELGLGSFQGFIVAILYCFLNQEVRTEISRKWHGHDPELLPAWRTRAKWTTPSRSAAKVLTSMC


How the values were obtained:
[1] = biological target: T1, GHRH receptor (membrane receptors of …); test: competition with 125I-JV-1-42, human pituitary membranes
Protocol: (§1) Normal human pituitaries were purchased from the National Hormone and Peptide Program (A. F. Parlow, Los Angeles, County Harbor-UCLA Medical Center, Torrance, Calif.).
The final binding affinities were expressed as IC₅₀ values and were calculated by using the LIGAND PC computerized curve-fitting program of Munson and Rodbard as modified by McPherson.

[2] = biological target: T1, GHRH receptor (membrane receptors of …); test: competition with 125I-[His1,Nle27]hGHRH(1-32)NH2, human pituitary membranes
Text: Normal human pituitary was purchased from the National Hormone and Peptide Program (UCLA Medical Center, Torrance, Calif.).

[3] = biological target: T1, GHRH receptor (membrane receptors of …); test: competition with 125I-JV-1-42, human pituitary membranes; remark: listed apart in the source
Text: as §1

[4] = biological target: T1, GHRH receptor (membrane receptors of …); test: competition with [His1,125I-Tyr10,Nle27]hGHRH(1-32)NH2, human pituitary membranes
Text: Normal human pituitaries were purchased from the National Hormone and Peptide Program (A. F. Parlow, Los Angeles, County Harbor—UCLA Medical Center, Torrance, Calif.).

Binder	IC50 [1] [nM]	Relative affinity (Binding potency) vs GHRH [1]	Relative affinity (Binding potency) vs JI-38 [1] [JI-38 = 1]	IC50 [2] [nM]	Relative affinity (Binding potency) compared to JI-38 [2] [JI-38 = 1]	Relative affinity (Binding potency) compared to hGHRH(1-29) [2]	IC50 [3] [nM]	Relative affinity (Binding potency) vs JI-38 [3] [JI-38 = 1]	IC50 [4] [nM]	Relative affinity (Binding potency) vs GHRH [4]	Relative affinity (Binding potency) vs JI-38 [4] [JI-38 = 1]
[Desaminotyrosyl][dA]DAIFTASYR[Orn]VL[Abu]QLSAR[Orn]LLQDI[Nle]DR[hArg]-NH2 (SMILES CCCC[C@H](NC(=O)[C@@H](NC(=O)[C@H](CC(=O)O)NC(=O)[C@H](CCC(N)=O)NC(=O)[C@H](CC(C)C)NC(=O)[C@H](CC(C)C)NC(=O)[C@H](CCCN)NC(=O)[C@H](CCCNC(=N)N)NC(=O)[C@H](C)NC(=O)[C@H](CO)NC(=O)[C@H](CC(C)C)NC(=O)[C@H](CCC(N)=O)NC(=O)[C@H](CC)NC(=O)[C@H](CC(C)C)NC(=O)[C@@H](NC(=O)[C@H](CCCN)NC(=O)[C@H](CCCNC(=N)N)NC(=O)[C@H](Cc1ccc(O)cc1)NC(=O)[C@H](CO)NC(=O)[C@H](C)NC(=O)[C@@H](NC(=O)[C@H](Cc1ccccc1)NC(=O)[C@@H](NC(=O)[C@H](C)NC(=O)[C@H](CC(=O)O)NC(=O)[C@@H](C)NC(=O)CCc1ccc(O)cc1)[C@@H](C)CC)[C@@H](C)O)C(C)C)[C@@H](C)CC)C(=O)N[C@@H](CC(=O)O)C(=O)N[C@@H](CCCNC(=N)N)C(=O)N[C@@H](CCCCNC(=N)N)C(N)=O, also called Peptide 23256) [P-23256 [Dat^1, D-Ala^2, Ala^8, Orn^12, Abu^15, Orn^21, Nle^27, Asp^28, Har^30]hGHRH(1-30)NH2]									0.04	148 GHRH(1-29) = 1	48.7
[Desaminotyrosyl][dA]DAI[Phe(F5)]TNSYR[Orn]VL[Abu]QLSAR[Orn]LLQDI[Nle]SR[GABA]-NH2 (SMILES CCCC[C@H](NC(=O)[C@@H](NC(=O)[C@H](CC(=O)O)NC(=O)[C@H](CCC(N)=O)NC(=O)[C@H](CC(C)C)NC(=O)[C@H](CC(C)C)NC(=O)[C@H](CCCN)NC(=O)[C@H](CCCNC(=N)N)NC(=O)[C@H](C)NC(=O)[C@H](CO)NC(=O)[C@H](CC(C)C)NC(=O)[C@H](CCC(N)=O)NC(=O)[C@H](CC)NC(=O)[C@H](CC(C)C)NC(=O)[C@@H](NC(=O)[C@H](CCCN)NC(=O)[C@H](CCCNC(=N)N)NC(=O)[C@H](Cc1ccc(O)cc1)NC(=O)[C@H](CO)NC(=O)[C@H](CC(N)=O)NC(=O)[C@@H](NC(=O)[C@H](Cc1c(F)c(F)c(F)c(F)c1F)NC(=O)[C@@H](NC(=O)[C@H](C)NC(=O)[C@H](CC(=O)O)NC(=O)[C@@H](C)NC(=O)CCc1ccc(O)cc1)[C@@H](C)CC)[C@@H](C)O)C(C)C)[C@@H](C)CC)C(=O)N[C@@H](CO)C(=O)N[C@@H](CCCNC(=N)N)C(=O)NCCCC(N)=O, also called MR-502; Peptide 25502) [P-25502 [Dat^1, D-Ala^2, Fpa5^6, Orn^12, Abu^15, Orn^21, Nle^27, Gab^30]hGHRH(1-30)NH2]	0.07	58 GHRH(1-29) = 1	24.4	2.16	1.27	3.54 hGHRH(1-29)NH2 = 1	0.33	13.2			

Now from value to binder:

IC50 [1] [nM]	Relative affinity (Binding potency) vs GHRH [1]	Relative affinity (Binding potency) vs JI-38 [1] [JI-38 = 1]	IC50 [2] [nM]	Relative affinity (Binding potency) compared to JI-38 [2] [JI-38 = 1]	Relative affinity (Binding potency) compared to hGHRH(1-29) [2]	IC50 [3] [nM]	Relative affinity (Binding potency) vs JI-38 [3] [JI-38 = 1]	IC50 [4] [nM]	Relative affinity (Binding potency) vs GHRH [4]	Relative affinity (Binding potency) vs JI-38 [4] [JI-38 = 1]	Binder
0.05	81.2 GHRH(1-29) = 1	34.2	3.3	0.83	2.31 hGHRH(1-29)NH2 = 1	0.86	5.06				[Desaminotyrosyl][dA]DAIFTNSYR[Orn]VL[Abu]QLSAR[Orn]LLQDI[Nle]SRQ[GABA]-NH2 (SMILES CCCC[C@H](NC(=O)[C@@H](NC(=O)[C@H](CC(=O)O)NC(=O)[C@H](CCC(N)=O)NC(=O)[C@H](CC(C)C)NC(=O)[C@H](CC(C)C)NC(=O)[C@H](CCCN)NC(=O)[C@H](CCCNC(=N)N)NC(=O)[C@H](C)NC(=O)[C@H](CO)NC(=O)[C@H](CC(C)C)NC(=O)[C@H](CCC(N)=O)NC(=O)[C@H](CC)NC(=O)[C@H](CC(C)C)NC(=O)[C@@H](NC(=O)[C@H](CCCN)NC(=O)[C@H](CCCNC(=N)N)NC(=O)[C@H](Cc1ccc(O)cc1)NC(=O)[C@H](CO)NC(=O)[C@H](CC(N)=O)NC(=O)[C@@H](NC(=O)[C@H](Cc1ccccc1)NC(=O)[C@@H](NC(=O)[C@H](C)NC(=O)[C@H](CC(=O)O)NC(=O)[C@@H](C)NC(=O)CCc1ccc(O)cc1)[C@@H](C)CC)[C@@H](C)O)C(C)C)[C@@H](C)CC)C(=O)N[C@@H](CO)C(=O)N[C@@H](CCCNC(=N)N)C(=O)N[C@@H](CCC(N)=O)C(=O)NCCCC(N)=O, also called MR-702; Peptide 29702) [P-29702 [Dat^1, D-Ala^2, Orn^12, Abu^15, Orn^21, Nle^27, Gln-Gab^30]hGHRH(1-30)NH2]
0.04	102 GHRH(1-29) = 1	42.7				0.52	8.37				[Desaminotyrosyl][dA]DAIFTQSYR[Orn]VL[Abu]QLSAR[Orn]LLQDI[Nle]D[Agmatine] (SMILES CCCC[C@H](NC(=O)[C@@H](NC(=O)[C@H](CC(=O)O)NC(=O)[C@H](CCC(N)=O)NC(=O)[C@H](CC(C)C)NC(=O)[C@H](CC(C)C)NC(=O)[C@H](CCCN)NC(=O)[C@H](CCCNC(=N)N)NC(=O)[C@H](C)NC(=O)[C@H](CO)NC(=O)[C@H](CC(C)C)NC(=O)[C@H](CCC(N)=O)NC(=O)[C@H](CC)NC(=O)[C@H](CC(C)C)NC(=O)[C@@H](NC(=O)[C@H](CCCN)NC(=O)[C@H](CCCNC(=N)N)NC(=O)[C@H](Cc1ccc(O)cc1)NC(=O)[C@H](CO)NC(=O)[C@H](CCC(N)=O)NC(=O)[C@@H](NC(=O)[C@H](Cc1ccccc1)NC(=O)[C@@H](NC(=O)[C@H](C)NC(=O)[C@H](CC(=O)O)NC(=O)[C@@H](C)NC(=O)CCc1ccc(O)cc1)[C@@H](C)CC)[C@@H](C)O)C(C)C)[C@@H](C)CC)C(=O)N[C@@H](CC(=O)O)C(=O)NCCCCNC(=N)N, also called Peptide 20350; MR-350) [P-20350 [Dat^1, D-Ala^2, Gln^8, Orn^12, Abu^15, Orn^21, Nle^27, Asp^28, Agm^29]hGHRH(1-29)NH2]
